Laboratory results from paper PMC2901339.
Like-named read-outs stand apart in the source and are kept apart here.

Legend:
[1] = target: coatomer protein I (COP-I), endogenous, HEK cells (human (endogenous in HEK-293)) (UniProt P53618); experiment: co-IP; lysates of HEK cells transfected with V5 tagged constructs, immunoprecipitated with anti COP I antibody, blot with anti V5 antibody
[2] = target: NF-PLN RΔ14 (rabbit) (UniProt P61015); experiment: co-IP; lysates of transfected HEK cells, FLAG-tagged PLN constructs precipitated with anti-Flag antibody and Protein G-Sepharose, 4°C, 0.1% Triton-X100, blot with COP I antibody
[3] = target: NF-R13E/R14E (N-terminally FLAG-tagged PLN R13E/R14E) (rabbit) (UniProt P61015); experiment: as above
[4] = target: coatomer protein I (COP-I), endogenous, HEK cells (human (endogenous in HEK-293)) (UniProt P53618); experiment: co-IP; lysates of HEK cells transfected with V5 tagged constructs, immunoprecipitated with anti COP I antibody, blot with anti V5 antibody; remark: listed apart in the source

## V5 tagged Sigma 1R R7E/R8E (from UniProt Q99720 1-223) (natural protein)
[1]
  fold band intensity of the wild type over this mutant: > 2 fold

## coatomer protein I (COP-I), endogenous, HEK cells (from UniProt P53618 1-953) (complex)
[2]
  fold reduction in band intensity against NF-PLN: 5 fold
[3]
  fold reduction in band intensity against NF-PLN: 5 fold

B1: V5 tagged SR β R7E/R8E (natural protein)
chain: MASADSEEVADGGGAGGTFQPYLDTLRQELQQTDPTLLSVVVAVLAVLLTLVFWKLIRSRRSSQRAVLLVGLCDSGKTLLFVRLLTGLYRDTQTSITDSCAVYRVNNNRGNSLTLIDLPGHESLRLQFLERFKSSARAIVFVVDSAAFQREVKDVAEFLYQVLIDSMGLKNTPSFLIACNKQDIAMAKSAKLIQQQLEKELNTLRVTRSAAPSTLDSSSTAPAQLGKKGKEFEFSQLPLKVEFLECSAKGGRGDVGSADIQDLEKWLAKIA
[4]
  fold band intensity of the wild type over this mutant: > 2 fold
